The data set concerns the molecule itself. In words: cryo-EM structure; apo hSMPD2 at about 10 mg/mL in 25 mM Hepes pH 7.4, 150 mM NaCl, 2 mM Mg2+, 0.005% LMNG; final map refined with C2 symmetry.

B1: human neutral sphingomyelinase 1 (hSMPD2), full length, wild type, twin-Strep tagged (enzyme, UniProt O60906 1-423, looked up)
chain: MKPNFSLRLRIFNLNCWGIPYLSKHRADRMRRLGDFLNQESFDLALLEEVWSEQDFQYLRQKLSPTYPAAHHFRSGIIGSGLCVFSKHPIQELTQHIYTLNGYPYMIHHGDWFSGKAVGLLVLHLSGMVLNAYVTHLHAEYNRQKDIYLAHRVAQAWELAQFIHHTSKKADVVLLCGDLNMHPEDLGCCLLKEWTGLHDAYLETRDFKGSEEGNTMVPKNCYVSQQELKPFPFGVRIDYVLYKAVSGFYISCKSFETTTGFDPHRGTPLSDHEALMATLFVRHSPPQQNPSSTHGPAERSPLMCVLKEAWTELGLGMAQARWWATFASYVIGLGLLLLALLCVLAAGGGAGEAAILLWTPSVGLVLWAGAFYLFHVQEVNGLYRAQAELQHVLGRAREAQDLGPEPQPALLLGQQEGDRTKEQ
notes: human SMPD2 (neutral sphingomyelinase 1), UniProt O60906, full length; cloned from human cDNA into pcDNA3.1(-); In the cryo-EM model the loop preceding TMH1 and residues 403-423 were disordered and not modelled; also called nSMase1; apo hSMPD2; source: HEK293F, transiently transfected, purified (membranes solubilised in LMNG, Strep-Tactin, size-exclusion chromatography)
By stoichiometry N is commonly meant the number of molecules, sites or subunits per partner or assembly. On to B1, for which the “stoichiometry N” value was found to be 2.

The values are drawn from publication PMC10682184, “Molecular basis for the catalytic mechanism of human neutral sphingomyelinases 1 (hSMPD2)” (Nature Communications, 2023).
